These results are taken from the supplement of paper PMC10724198.

Data set [1] concerns Saccharomyces cerevisiae. The experiment in a line: protein stability index of tFT-peptide fusion in deletion strain of DOA10 (PSI (0-1 scale)); higher = more stable (slower turnover). On the procedure:
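MPS profiling in S. cerevisiae of two library types built from selected 12-aa C-degron peptides (IN1, IN2, LN1, LN3, VN2, R1-R5, W1-W3, Atg1 and Rpa12 C-termini): saturation mutagenesis libraries and C-terminal +1 capping libraries (13 aa). Each peptide is fused to the C-terminus of a sfGFP-mCherry timer, after a GGGS linker. Cells are FACS-sorted into 8 mCherry/sfGFP bins and sequenced. PSI runs from 0 (unstable) to 1 (stable), measured once in wild type and in the das1Δ or doa10Δ background.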

The subject of data set [2] is Saccharomyces cerevisiae. The experiment in a line: protein stability index of tFT-peptide fusion in wild type (PSI (0-1 scale)); higher = more stable (slower turnover). Conditions: genetic background: wild type.
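Throughout, for protein stability index of tFT-peptide fusion in deletion strain of DOA10: PSI per variant is the weighted mean of its sequencing read distribution over the sorted stability bins, counting only variants with over 10 reads summed across bins.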
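Throughout, for protein stability index of tFT-peptide fusion in wild type: PSI derived as read-weighted mean over the 8 sorting bins, only variants exceeding 10 total reads kept, mCherry placed adjacent to the peptide and sfGFP distal.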

In the case of GLYMCSVGCWHR, the protein stability index in data set [1] came to 0.722; in data set [2], 0.668.
Taken in the same sequence, the figures for GLYMCSVGNWFR were 0.683 and 0.611.
On the same counts, the results for GLYMCSVGRWFR are 0.668 and 0.643.
Taken in the same sequence, the figures for GLYMESVGCWFR were 0.703 and 0.415.
ILYMCSVGCWFR: the protein stability index came to 0.486 in data set [1] and 0.289 in data set [2].
On the same counts, the results for IVTRLDAIYFRI are 0.612 and 0.24.
Taken in the same sequence, the figures for RATRLDAIYFRI were 0.681 and 0.493.
On the same counts, the results for RHLRVLLPLYFR are 0.678 and 0.277.
Take RITLPMCPLLLR: the protein stability index in data set [1] came out at 0.651; in data set [2], 0.296.
On the same counts, the results for RMTRLDAIYFRI are 0.655 and 0.429.
On the same counts, the results for RNTRLDAIYFRI are 0.664 and 0.529.
On the same counts, the results for RSFRVLLPLYFR are 0.612 and 0.162.
Take RSIRVLLPLYFR: the protein stability index in data set [1] stood at 0.643; in data set [2], 0.225.
Taken in the same sequence, the figures for RSLRVELPLYFR were 0.685 and 0.17.
Taken in the same sequence, the figures for RSLRVLIPLYFR were 0.639 and 0.23.
On the same counts, the results for RSLRVLLPLCFR are 0.687 and 0.405.
As for RSLRVLLPLFFR, the protein stability index was 0.681 in data set [1] and 0.38 in data set [2].
With RSLRVLLPLMFR, the protein stability index was determined as 0.654 in data set [1] and 0.288 in data set [2].
Taken in the same sequence, the figures for RSLRVLLPLYER were 0.658 and 0.645.
Taken in the same sequence, the figures for RSLRVLLPLYFA were 0.413 and 0.286.
Taken in the same sequence, the figures for RSLRVLLPLYFH were 0.583 and 0.365.
For RSLRVLLPLYFRD, the protein stability index was 0.647 in data set [1] and 0.346 in data set [2].
As to RSLRVLLPLYFRK, the protein stability index came out at 0.593 in data set [1] and 0.293 in data set [2].
On the same counts, the results for RSLRVLLPLYFRL are 0.496 and 0.194.
Taken in the same sequence, the figures for RSLRVLLPLYFY were 0.435 and 0.263.
Taken in the same sequence, the figures for RSLRVLLPLYNR were 0.666 and 0.623.
As for RSLRVLLPPYFR, the protein stability index in data set [1] came out at 0.689; in data set [2], 0.658.
In the case of RSLRVLLPQYFR, the protein stability index was determined as 0.689 in data set [1] and 0.642 in data set [2].
Taken in the same sequence, the figures for RSLRVLLPYYFR were 0.678 and 0.545.
For RSLRVNLPLYFR, the protein stability index in data set [1] is 0.672; in data set [2], 0.18.
On the same counts, the results for RSLRVPLPLYFR are 0.687 and 0.113.
For RSYRVLLPLYFR, the protein stability index in data set [1] was found to be 0.637; in data set [2] it was 0.217.
On the same counts, the results for RVDRLDAIYFRI are 0.639 and 0.559.
Taken in the same sequence, the figures for RVHRLDAIYFRI were 0.659 and 0.438.
On the same counts, the results for RVNRLDAIYFRI are 0.659 and 0.48.
For RVRRLDAIYFRI, the protein stability index in data set [1] stood at 0.641; in data set [2] it was 0.385.
On the same counts, the results for RVTCLDAIYFRI are 0.655 and 0.477.
On the same counts, the results for RVTRCDAIYFRI are 0.677 and 0.467.
On the same counts, the results for RVTRLDACYFRI are 0.707 and 0.532.
Turning to RVTRLDAILFRI, the protein stability index in data set [1] was 0.705; in data set [2], 0.453.
On the same counts, the results for RVTRLDAIYFKI are 0.595 and 0.352.
On the same counts, the results for RVTRLDAIYFRA are 0.697 and 0.608.
On the same counts, the results for RVTRLDAIYFRIA are 0.136 and 0.0756.
As to RVTRLDAIYFRII, the protein stability index in data set [1] is 0.127; in data set [2], 0.0611.
On the same counts, the results for RVTRLDAKYFRI are 0.709 and 0.673.
In the case of RVTRLDAMYFRI, the protein stability index in data set [1] came out at 0.698; in data set [2], 0.549.
On the same counts, the results for RVTRLDARYFRI are 0.718 and 0.667.
Taken in the same sequence, the figures for RVTRLEAIYFRI were 0.62 and 0.268.
Taken in the same sequence, the figures for RVTRLHAIYFRI were 0.372 and 0.172.
On to RVTRLIAIYFRI, for which the results for the protein stability index in data set [1] and in data set [2] were 0.348 and 0.168, respectively.
As for RVTRLKAIYFRI, the values for the protein stability index in data set [1] and in data set [2] were 0.32 and 0.155, respectively.
Taken in the same sequence, the figures for RVTRLPAIYFRI were 0.636 and 0.217.
Taken in the same sequence, the figures for RVTRLTAIYFRI were 0.351 and 0.172.
On the same counts, the results for RVTRLYAIYFRI are 0.294 and 0.134.
As to TSLRVLLPLYFR, the results for the protein stability index in data set [1] and in data set [2] were 0.654 and 0.294, respectively.
Taken in the same sequence, the figures for WLVSLPILLFFR were 0.518 and 0.105.
